Patent publication US20120101255A1

Biological target: Recombinant Cx43CT (carboxyl terminal domain of rat connexin43, residues 255-382, preceded by GPLG) (rat) (UniProt P08050)
Test: SPR on the carboxyl terminal domain of Cx43, peptide at 1.0 mM

Sequence of Recombinant Cx43CT (carboxyl terminal domain of rat connexin43, residues 255-382, preceded by GPLG) (rat) (P08050 other isoform, or with tags, fused parts or gaps limits assumed): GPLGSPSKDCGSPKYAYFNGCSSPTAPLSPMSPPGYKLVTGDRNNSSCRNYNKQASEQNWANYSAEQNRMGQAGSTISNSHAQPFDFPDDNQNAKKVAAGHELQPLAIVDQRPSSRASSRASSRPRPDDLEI

Question: For “AcRNP-NH2 (Identification No. 2502) (peptide)”, which Response (arbitrary units) is on record?
Answer: 4.6
